The source of these data is patent US5911991A, “Malarial binding site in duffy blood group protein” (New York Blood Center, Inc., priority 1996, dated 1999).

Where “and” joins values, the source holds several entries; their conditions need not be identical. Equal entries are not always repeated. Where two headings read alike, the source gives them in different places. Ends that are not written are not given here.

In experiment [1] the target is T1, Region II of P. falciparum EBA-175 (Plasmodium falciparum, UniProt P19214).
T1 construct: expressed in transfected cells; host or cells: Cos7 cells (ATCC CRL 1651)
Nature of the experiment: cell-based.

Experiment [2] concerns Region II of the P. knowlesi Duffy antigen binding protein (α). The settings on record: read-out: concentration for 50% inhibition of erythrocyte binding, human erythrocytes.
Source text: To study the ability of peptides from the Duffy antigen to inhibit erythrocyte binding, a binding assay using the transfected Cos cells was employed, based on a method previously described (Chitnis et al. 1994). This method measures interaction between the malarial Duffy antigen binding ligand expressed by the Cos cells and Duffy protein on erythrocytes. The ability of an analyte to interfere with the cellular binding can be quantitated by comparing the number of Cos cells surrounded by rosettes of erythrocytes in the control versus the number of rosettes formed in the presence of the analyte.
Transfected Cos cells were preincubated for 1 h in a 5% CO2 incubator at 37° C. in 0.9 mL of complete Dulbecco's modified Eagle's medium (cDMEM) containing a series of concentrations (0 to 100 μM) of the peptides. One hundred microliters of human or rhesus erythrocytes at a hematocrit of 10% were added to wells containing the peptides and allowed to bind over 2 h at 37° C. in a 5% CO2 incubator. Non-adherenterythrocytes were removed by washing the Cos7 cells then with PBS. The numbers of rosettes were scored in 20 fields of view at a magnification of 40× using an inverted microscope. Inhibition curves were drawn for three independent experiments and used to determine concentrations of the peptides required to achieve 50% inhibition. […]
For experiment [3], the target named is rhesus Duffy blood group antigen on normal rhesus erythrocytes (rhesus monkey) (UniProt Q95LF2).
In experiment [4] the target is Region II of the P. knowlesi β protein expressed on the Cos7 cell surface (Plasmodium knowlesi; Herpes simplex virus) (UniProt P50493).
The target of experiment [5] is deglycosylated rhesus Duffy blood group antigen on N-glycanase-treated rhesus erythrocytes (rhesus monkey) (UniProt Q95LF2).
The subject of the next experiment is P. vivax Region II. The settings on record: previously shown (Horuk et al. 1993; Chitnis et al. 1994); cited from earlier work.
The subject of experiment [6] is Region II of the P. knowlesi Duffy-binding ligand (α). Put plainly: MGSA inhibition of rhesus erythrocyte binding, P. knowlesi α Region II. The format is cell-based, Plasmodium knowlesi.
The next experiment deals with P. knowlesi β Region II. Nature of the experiment: MGSA inhibition of N-glycanase-treated rhesus erythrocyte binding, P. knowlesi β Region II. Type of experiment: cell-based, Plasmodium knowlesi. The settings on record: rhesus erythrocytes, read-out: 50% Inhibition Conc.
The test system of experiment [7] is Region II of the P. vivax Duffy antigen binding protein. Put plainly: MGSA inhibition of N-glycanase-treated rhesus erythrocyte binding, P. vivax Region II. The format is cell-based, Plasmodium vivax. The method, then: Blood was collected in 10% citrate/phosphate/dextrose (CPD) (Baxter, Deerfield, Ill.) and stored at 4° C. for up to four weeks. Standard blood banking methods using two antisera (anti-Fya and anti-Fyb) were used to determine the Duffy phenotypes. Duffy positive erythrocytes used in the binding assays had the Fy(a+b+) phenotype. Erythrocytes were washed three times in RPMI 1640 (GIBCO BRL) and resuspended to a hematocrit of 10% in RPMI 1640 for use in the erythrocyte binding assays. Washed human and rhesus erythrocytes were treated with neuraminidase as described earlier (Comus et al. 1985). Human and rhesus erythrocytes were deglycosylated with the N-glycanase, peptide-N-glycosidase F from Flavobacterium meningosepticum (Oxford Glycosystems). Washed erythrocytes (100 μL) were incubated with mixing for 1 h at 37° C. in 500 μL of PBS containing 10 units of N-glycanase and reaction buffer supplied by the manufacturer. The erythrocytes were washed extensively in PBS to remove the enzyme and stop the deglycosylation.
To study the efficacy of the chemokine MGSA in inhibiting binding, erythrocytes were preincubated in media containing different concentrations of MGSA (0 to 1000 nM) for 1 h at room temperature before they were used in erythrocyte binding assays as described earlier (Su et al. 1995). […]

The target of experiment [8] is T2, Duffy blood group antigen (Homo sapiens, UniProt Q16570).
T2 sequence (Q16570 1-336): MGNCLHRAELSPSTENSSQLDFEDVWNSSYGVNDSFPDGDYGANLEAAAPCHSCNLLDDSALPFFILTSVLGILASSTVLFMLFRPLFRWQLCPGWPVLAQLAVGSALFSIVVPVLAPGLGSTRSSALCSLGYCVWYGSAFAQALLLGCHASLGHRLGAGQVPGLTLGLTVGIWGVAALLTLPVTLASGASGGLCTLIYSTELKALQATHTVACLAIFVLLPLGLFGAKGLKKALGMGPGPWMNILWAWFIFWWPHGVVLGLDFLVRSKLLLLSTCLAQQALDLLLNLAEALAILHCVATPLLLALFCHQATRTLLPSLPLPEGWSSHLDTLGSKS
The note with it: previously shown (Horuk et al. 1993; Chitnis et al. 1994); cited from earlier work.

In experiment [9] the test system is Rubinstein anti-Fy6 antibody. Nature of the experiment: Binding of the Rubinstein anti-Fy6 antibody to Duffy peptides (ELISA). Details: species or system murine. In general terms: In an ELISA, binding on a coated surface is turned into a signal by an enzyme label.
The target of experiment [10] is Region II of the P. vivax Duffy antigen-binding protein (DABP) expressed on the Cos7 cell surface (Plasmodium vivax; Herpes simplex virus, UniProt P22290).
Experiment [11] has as its target Region II of the P. knowlesi β protein expressed on the Cos7 cell surface (Plasmodium knowlesi; Herpes simplex …, UniProt P50493).
Experiment [12] concerns the target T3, Region II of the P. knowlesi Duffy antigen binding protein (alpha) expressed on the Cos7 cell surface (Plasmodium knowlesi; Herpes simplex …, UniProt P22545).
T3 sequence: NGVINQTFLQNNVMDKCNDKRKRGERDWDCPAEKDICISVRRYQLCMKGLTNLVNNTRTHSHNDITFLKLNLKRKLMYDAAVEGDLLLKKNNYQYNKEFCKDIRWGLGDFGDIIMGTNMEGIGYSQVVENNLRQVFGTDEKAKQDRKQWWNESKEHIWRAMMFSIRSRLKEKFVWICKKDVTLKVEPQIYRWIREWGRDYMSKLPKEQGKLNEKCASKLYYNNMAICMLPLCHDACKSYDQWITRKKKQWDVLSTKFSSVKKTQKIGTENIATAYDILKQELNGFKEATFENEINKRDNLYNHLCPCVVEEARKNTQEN

Experiment [13] concerns the target T3, Region II of the P. knowlesi Duffy …. This is another data set of the same source.

Sequence of Region II of the P. vivax Duffy antigen binding protein (P22290 211-521): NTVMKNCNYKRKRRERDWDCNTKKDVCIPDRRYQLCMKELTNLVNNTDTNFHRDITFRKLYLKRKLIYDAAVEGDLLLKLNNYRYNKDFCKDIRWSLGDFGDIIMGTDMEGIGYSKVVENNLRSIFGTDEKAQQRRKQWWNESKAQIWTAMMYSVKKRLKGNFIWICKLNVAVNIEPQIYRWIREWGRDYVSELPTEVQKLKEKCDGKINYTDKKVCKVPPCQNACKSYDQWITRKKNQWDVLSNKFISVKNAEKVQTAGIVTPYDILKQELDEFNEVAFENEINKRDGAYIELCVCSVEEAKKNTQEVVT
Sequence of P. vivax Region II (P22290 211-521): as above

On to “AELSPSTENSSQLDFEDVWNSSYGVNDSFPDGDYD [HPEP35]”, for which the values for the IC50 in [1] and in [2] were above 100000 nM and 4900 ± 2300 nM, respectively.
As to “AELSPSTQNSSQLNSDLWNFSYDGNDSFPDVDYD [RHPEP34]”, the IC50 in experiment [1] was above 100000 nM.
On to “melanoma growth stimulating activity (MGSA) (from UniProt P09341) (ligand)”, for which the IC50 in experiment [3] is 5 nM; in [4], above 1000 nM; in experiment [5], 5 nM and 6 nM.
Consider “melanoma growth stimulating activity [MGSA]”, for which, in the experiment on P. vivax Region II, the “inhibition of binding of P. vivax Region II to Duffy-positive human erythrocytes” value was “inhibit”. In addition, the “inhibition of binding of rhesus erythrocytes to Cos cells expressing Region II of P. knowlesi α” value in experiment [6] (in words) is listed as “inhibit”. In addition, the IC50 in experiment [6] (rhesus erythrocytes, treatment none, P. knowlesi α, read-out: 50% Inhibition Conc.) was 5 nM; at P. knowlesi β Region II it was above 1000 nM; in [7] (rhesus erythrocytes, N-glycanase treated, P. vivax DABP, separate experiments, read-out: 50% Inhibition Conc.), 5 nM and 6 nM. Besides, the “inhibition of binding of N-glycanase-treated rhesus erythrocytes to P. vivax Region II” value in [7] (in words, 50% inhibition at nanomolar concentrations) is “inhibits”. Further, the “binding to the Duffy blood group antigen” value in experiment [8] is given as “binds”.

B1: MASSGYVLQAELSPSTENSSQLDFEDVWNSSYGVNDSFPDGDYDANLEAAAPCHSCNLLDDSALPF (peptide)
chain: MASSGYVLQAELSPSTENSSQLDFEDVWNSSYGVNDSFPDGDYDANLEAAAPCHSCNLLDDSALPF
notes: N-terminal peptide of gp-Fyα containing the HPEP35 domain
Consider B1, for which, in [9], the “binding in an ELISA assay (Rubinstein antibody)” value was “bind”.
Regarding AELSPSTQNSSQLNSDLWNFSYDGNDSFPDVDYD [RHPEP34], the values for the IC50 in experiment [10], in [11] and in experiment [12] were 2100 nM, above 100000 nM and 5500 nM, respectively.
Turning to AELSPSTENSSQLDFEDVWNSSYGVNDSFPDGDYD [HPEP35], the IC50 in experiment [13] was 4900 nM; in experiment [10], 2900 nM.
